# Assay results as given in US8574882B2, “Thermostable 1,5-anhydroglucitol dehydrogenase, and method for measurement of 1,5-anhydroglucitol by using the same” (Nippon Kayaku Kabushiki Kaisha, priority 2008, dated 2013).
# B1: Ver. 1.0: thermostable 1,5-AG dehydrogenase, protein 21) of b101; net vs SEQ ID NO: 4: P50Q (protein)
# chain: MEFGGQPDIVIIGSGIGGASIAAGLSASGADILILEAGESLPDRPENRDQHAIFQRGFFRPKEFWYETDGTPFNPGNYYNVGGNSKFYGAVLVRYRREDFEELAHLEGVSPAWPFAYDELEPWYCKAEELFQVRGELGDDPTEPYHSKPYSYPAIRDESPIADLRARLKKAGLHPASLPLGVDIERWLAKAKTPWDAHPNSNDGKMDAETCPLALALKHPNVGLETSARVTKLETGPDGKTIVAVHYVKNGEALVLRPKLVILSAGAVQSAALLLRSGLANRSDQVGRNFMNHNASAVIGFDPRYRNDSVYQKTFGFNDYYLSDGAGGPPLGNVQLLGRVSGAILKSNMRQVPEWFLNRIAGHTIDFYAMSEDLPSPESRVSVDGDRIILHWVRSNWKAHLMLVDKLKSALRAAGFPVVLSRAFDRRTPSHQCGTVRIGDNPATAPLDPYCRAYDHPNLYVVDASFLPTSAAVNPALTIAAQALRVADHLNREVLA
# modifications: Pseudomonas sp. NK-85001
# Tests used:
# [1] = 1,5-AG dehydrogenase activity determination of crude enzyme solution (L-sorbose, DCIP, 1-m-PMS, decrease in absorbance at 600 nm); format: biochemical; settings: crude enzyme solution, L-sorbose as substrate, 37° C.
# Method: The E. coli JM109 strains transformed with the pTrc-PS15DH vectors confirmed in the paragraph (I) to have the insert fragment were inoculated to 3 mL of an LB medium containing 100 μg/mL ampicillin and cultured at 28° C. for 14 hours. Of this culture solution, a 0.2 mL aliquot was inoculated to 10 mL of an LB medium (containing 100 μg/mL ampicillin). Approximately 3 hours later, the rise of OD600 of the culture solution to 0.4 to 0.7 was confirmed, and 1,5-AG dehydrogenase expression in E. coli was then induced by the addition of 0.1 M IPTG (final concentration: 0.1 mM) to the medium. This culture solution was further cultured overnight at 28° C. and centrifuged at 10000×g for 5 minutes to precipitate cells. The supernatant was removed, and the pellet was then washed twice with a 0.85% aqueous NaCl solution. Cells were precipitated by centrifugation. Then, the microbial cells were suspended in 1 mL of a 50 mM sodium phosphate buffer, pH 7.5. Triton X-100 was added thereto at a concentration of 0.25%, and the microbial cells were disrupted using a bead impact-type cell disrupter MINI-BEAD BEATER (30 seconds×4, manufactured by Central Scientific Commerce, Inc.) while cooled in ice. After centrifugation at 20000×g for 10 minutes, the supernatant was examined as a crude enzyme solution for its 1,5-AG dehydrogenase activity. The composition of the reaction solution is as described below. Since the 1,5-AG dehydrogenase also reacts with L-sorbose as its substrate, L-sorbose was used for convenience instead of 1,5-AG in the enzymatic activity determination.
# Composition of Reaction Solution:
# The components other than the crude enzyme solution are mixed and kept at 37° C. for 10 minutes. Then, the crude enzyme solution is added to the reaction solution to initiate reaction. Decrease in absorbance at 600 nm for 1 minute with the temperature kept at 37° C. is determined.
# The enzymatic activity can be determined according to the following equation: Enzymatic activity (U/mL)=(Δ600/min×0.6 (mL)×dilution ratio of crude enzyme solution)/(16.3×0.01 (mL)).
# (§1) The E. coli JM109 containing the gene encoding each thermostable 1,5-AG dehydrogenase obtained in the paragraphs to [4] of EXAMPLE 2 was transplanted to 10 mL of an LB liquid medium containing 50 μg/mL ampicillin and 0.1 mM IPTG and shake-cultured at 30° C. for 16 hours. 10 mL of the shake-culture solution was centrifuged at 10000 rpm for 5 minutes. The culture supernatant was removed, and the pellet was then washed twice with a 0.85% aqueous NaCl solution. These microbial cells were suspended in 1 mL of a 50 mM sodium phosphate buffer (pH 7.5) containing 0.25% Triton X-100. The microbial cells were disrupted using a bead impact-type cell disrupter MINI-BEAD BEATER (30 seconds×4, manufactured by Central Scientific Commerce, Inc.) while cooled in ice. After centrifugation at 15000 rpm for 10 minutes, the supernatant was used as a crude enzyme solution. When the crude enzyme solution was heat-treated, the treatment was performed for 10 minutes in a water bath of 45° C., 50° C., 55° C. or 60° C.
# (§2) The enzymatic activity of the 1,5-AG dehydrogenase was calculated by measurement by the same approach as that described in the paragraph (J) of EXAMPLE 1.
# (§3) A specific activity that represents the enzymatic activity of the 1,5-AG dehydrogenase per mg of the crude enzyme solution was calculated according to the following equation: Specific activity (U/mg)=enzymatic activity (U/mL)/protein concentration of crude enzyme solution (mg/mL). Moreover, the rate of residual activity was calculated according to the following equation: Rate of residual activity (%)=(specific activity of crude enzyme solution after heat treatment/specific activity of crude enzyme solution before heat treatment)×100.
# The 1,5-AG dehydrogenase activity was determined based on the method described in EXAMPLE 1, and its specific activity was determined according to the equation described in EXAMPLE 3.
# [2] = Stability of thermostable 1,5-AG dehydrogenase at heat treatment temperature (rate of residual activity); format: physicochemical; settings: crude enzyme solution, water bath 45° C., 10 minutes
# Method: as §1, §2, §3
# [3] = Primary screening of variant gene library after heat treatment of microbial cells (DCIP decolorization with 1,5-AG); format: biochemical; settings: microbial cells treated at 60° C. for 20 minutes; blue color of DCIP decolorized
# Method: Approximately 10100 colonies of the variant gene library were randomly picked up using a colony picker (PM-2s, manufactured by Microtec Co., Ltd.) and subjected to primary screening In the primary screening, a 1.2-mL 96-well square deep well plate (manufactured by NALGE NUNC INTERNATIONAL MK.) was used. The colonies were transplanted to 500 μL of an LB liquid medium containing 50 μg/mL ampicillin and cultured (28° C., 900 rpm) overnight in a 96-well square plate shaker (TITRAMAX 100, manufactured by HEIDOLPH). The 96-well square deep well plate was centrifuged at 2000 rpm for 10 minutes to separate microbial cells, which were then treated at −80° C. for 1 hour. The microbial cells were thawed and then treated at 60° C. for 20 minutes. Active variant enzymes were picked up by suspending the microbial cells thus treated at 60° C. by the addition of 200 μL of a 0.1 M potassium phosphate buffer (pH 7.0) containing 0.5% Triton X-100, 30 μL of 6 mM 2,6-dichlorophenolindophenol (DCIP) and 5 μL of 50 mg/mL 1,5-AG. The blue color of DCIP is decolorized for colonies having the enzymatic activity. As a result, it was observed that the blue color of DCIP was decolorized for colonies carrying a 1,5-AG dehydrogenase Ver. […] 0.
molecule,measurement,setting,value
B1,Specific activity,[1],1.7 U/mg
same,Rate of residual activity after 10-minute treatment at 45° C.,[2],8.3%
same,"Thermostability compared with 1,5-AG dehydrogenase Ver. 0",[3],improved thermostability
